# From PMC8761706
# Where “and” joins values, the source holds several entries; their conditions need not be identical. Identical values can stand only once.
# Experiments:
# [1] = molecular target: fibrinogen fragment D fragment D (Homo sapiens) (UniProt P02671); conditions: cited from earlier work
# [2] = molecular target: fibrinogen fragment D (human); experiment: fluorescence polarisation; competitive fluorescence anisotropy; unlabeled construct titrated into mixtures of fixed [5F]PR–(R1 → R7) with two frag D concentrations; cubic equation, fit together with the direct titrations
# [3] = molecular target: fibrinogen fragment D (human); experiment: other fluorescence titration; fluorescein-labeled construct at fixed concentration titrated with frag D; fluorescence intensity; 25 °C; 50 mM Hepes, 110 mM NaCl, 5 mM CaCl2, 1 mg/ml PEG-8000, pH 7.4, 10 μM FPR-CK; quadratic fit; n fixed to 1 for the Ala constructs and MP
# [4] = molecular target: staphylocoagulase SC(1–660), full-length (Staphylococcus aureus Newman D2 Tager 104); experiment: native gel or EMSA; incubated 30 min at 25 °C in 50 mM Hepes, 110 mM NaCl, 5 mM CaCl2, 1 mg/ml PEG-8000, 10 μM FFR-CK and FPR-CK with molar excess of frag D; 6% Tris–glycine gel without SDS, 4 °C; GelCode Blue and fluorescence
# [5] = molecular target: fibrinogen fragment D (human); experiment: other fluorescence titration; fluorescence intensity; 20 mM sodium phosphate, 150 mM NaCl, 1 mg/ml PEG-8000, 10 μM FPR-CK, pH 7.0; n fixed to 1
# [6] = molecular target: fibrinogen fragment D (human); experiment: other fluorescence titration; fluorescence intensity; 20 mM sodium phosphate, 150 mM NaCl, 1 mg/ml PEG-8000, 10 μM FPR-CK, pH 7.4; n fixed to 1
# [7] = molecular target: fibrinogen fragment D (human); experiment: native gel or EMSA; incubated 30 min at 25 °C in 50 mM Hepes, 110 mM NaCl, 5 mM CaCl2, 1 mg/ml PEG-8000, 10 μM FFR-CK and FPR-CK with molar excess of frag D; 6% Tris–glycine gel without SDS, 4 °C; GelCode Blue and fluorescence
# [8] = molecular target: fibrinogen fragment D (human); experiment: fluorescence polarisation; fluorescence anisotropy; [5F]PR–(R1 → R7) titrated with frag D; 'the same buffer'; quadratic fit, n not fixed; independent, noncooperative sites assumed
# fibrinogen fragment D fragment D (Homo sapiens), sequence (P02671 20-866, chain 1 of 3): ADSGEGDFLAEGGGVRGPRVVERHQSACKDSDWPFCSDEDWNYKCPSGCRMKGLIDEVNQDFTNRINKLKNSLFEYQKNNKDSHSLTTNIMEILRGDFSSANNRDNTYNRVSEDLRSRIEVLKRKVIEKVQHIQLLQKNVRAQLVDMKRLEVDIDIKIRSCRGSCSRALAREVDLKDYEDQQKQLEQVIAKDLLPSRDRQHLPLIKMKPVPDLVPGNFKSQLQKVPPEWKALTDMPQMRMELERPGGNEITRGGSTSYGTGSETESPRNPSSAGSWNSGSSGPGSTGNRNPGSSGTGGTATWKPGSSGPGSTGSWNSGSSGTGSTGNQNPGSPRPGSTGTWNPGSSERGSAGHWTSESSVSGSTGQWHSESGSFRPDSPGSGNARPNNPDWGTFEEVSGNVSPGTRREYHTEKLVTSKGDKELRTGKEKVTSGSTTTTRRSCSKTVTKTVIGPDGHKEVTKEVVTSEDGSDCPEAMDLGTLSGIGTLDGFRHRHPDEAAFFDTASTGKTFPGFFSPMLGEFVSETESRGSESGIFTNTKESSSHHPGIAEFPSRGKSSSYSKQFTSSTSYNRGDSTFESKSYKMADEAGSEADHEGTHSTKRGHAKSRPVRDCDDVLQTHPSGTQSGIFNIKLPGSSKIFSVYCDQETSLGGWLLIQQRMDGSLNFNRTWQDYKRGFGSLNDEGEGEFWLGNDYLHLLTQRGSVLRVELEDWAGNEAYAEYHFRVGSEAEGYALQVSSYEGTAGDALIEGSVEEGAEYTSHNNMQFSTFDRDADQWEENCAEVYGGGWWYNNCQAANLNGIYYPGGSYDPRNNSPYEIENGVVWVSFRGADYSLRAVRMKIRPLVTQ
# fibrinogen fragment D fragment D (Homo sapiens), sequence (P02675 31-491, chain 2 of 3, further chain): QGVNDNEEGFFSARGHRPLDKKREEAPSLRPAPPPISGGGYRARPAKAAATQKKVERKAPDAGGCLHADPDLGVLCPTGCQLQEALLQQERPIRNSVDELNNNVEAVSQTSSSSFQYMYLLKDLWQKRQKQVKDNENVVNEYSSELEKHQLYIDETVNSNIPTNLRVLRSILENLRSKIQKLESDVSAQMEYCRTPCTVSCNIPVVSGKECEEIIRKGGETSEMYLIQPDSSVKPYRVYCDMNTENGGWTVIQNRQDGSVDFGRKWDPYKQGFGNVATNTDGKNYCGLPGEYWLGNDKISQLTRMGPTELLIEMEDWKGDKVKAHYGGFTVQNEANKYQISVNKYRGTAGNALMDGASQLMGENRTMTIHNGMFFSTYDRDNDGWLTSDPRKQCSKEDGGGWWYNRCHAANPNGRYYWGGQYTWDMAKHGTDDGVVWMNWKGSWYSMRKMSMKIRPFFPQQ
# fibrinogen fragment D fragment D (Homo sapiens), sequence (P02679 27-453, chain 3 of 3, further chain): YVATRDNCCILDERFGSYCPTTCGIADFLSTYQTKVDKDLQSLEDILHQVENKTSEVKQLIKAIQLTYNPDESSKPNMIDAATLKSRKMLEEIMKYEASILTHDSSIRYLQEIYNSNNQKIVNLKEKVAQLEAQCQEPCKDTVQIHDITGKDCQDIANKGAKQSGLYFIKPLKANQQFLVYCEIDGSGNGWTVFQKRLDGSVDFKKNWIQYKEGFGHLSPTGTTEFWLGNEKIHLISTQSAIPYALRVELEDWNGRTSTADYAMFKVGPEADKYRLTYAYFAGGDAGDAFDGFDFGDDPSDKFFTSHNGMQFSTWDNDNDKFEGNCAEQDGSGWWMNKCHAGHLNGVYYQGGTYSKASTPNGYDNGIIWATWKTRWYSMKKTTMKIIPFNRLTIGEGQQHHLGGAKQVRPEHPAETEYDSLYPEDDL
substance,measurement,setting,value
staphylocoagulase PR-R1 (from UniProt P07767),Kd,[1],0.036 µM
PR–R1R2R3 (unlabeled competitor) (domain or fragment),stoichiometry N (mol frag D/mol repeat),[2],3.3 and 3.5 and 2.5
[5F]PR–R2 (domain or fragment),Kd,[3],0.13 µM
same,stoichiometry N (mol frag D/mol repeat),[3],0.9
"[5F]ProT, prothrombin labeled at the active site with 5-fluorescein (natural protein)",stoichiometry N,[4],1 mol/mol
[5F]PR–R1 (domain or fragment),stoichiometry N (mol frag D/mol repeat),[3],1
[5F]PR–R7-SETNA (domain or fragment),Kd,[3],0.12 µM
PR–R3R6R7 (unlabeled competitor) (domain or fragment),Kd,[2],0.042 µM
same,stoichiometry N (mol frag D/mol repeat),[2],3
[5F]PR–R3 (domain or fragment),Kd,[3],0.099 µM
same,stoichiometry N (mol frag D/mol repeat),[3],1.1
[5F]PR–R7 (domain or fragment),Kd,[5],3 µM
same,Kd,[3],0.112 µM
same,stoichiometry N (mol frag D/mol repeat),[3],0.8
same,Kd,[6],0.027 µM
[5F]PR–R1R6R7 (domain or fragment),stoichiometry N (frag D per construct),[7],3
[5F]PR–R1R2R3 (domain or fragment),stoichiometry N (frag D per construct),[7],3
[5F]PR–R6 (domain or fragment),Kd,[3],0.115 µM
same,stoichiometry N (mol frag D/mol repeat),[3],0.8
"staphylocoagulase SC(1–660), full-length (natural protein)",stoichiometry N (frag D per SC(1–660)),[7],5 and 6
PR–R1R6R7 (unlabeled competitor) (domain or fragment),Kd,[2],0.008 µM
same,stoichiometry N (mol frag D/mol repeat),[2],3
PR–R3R4R7 (unlabeled competitor) (domain or fragment),Kd,[2],0.042 µM
same,stoichiometry N (mol frag D/mol repeat),[2],2.8
"[5F]PR–(R1 → R7), full-length C-terminal repeat construct (domain or fragment)",stoichiometry N (frag D per construct),[7],7
same,stoichiometry N (mol frag D/mol repeat),[8],5.2 and 4.8 and 5.1
